Results reported in patent publication US20140271675A1 (Eli Lilly, published 2014).

Experiments:
human VEGFR3 = target: T1, human VEGFR3 (Human, UniProt P35916 25-776, limits assumed); assay: SPR (Biacore), 25 C
T1 construct: also called VEGFR3 Human
T1 sequence (looked up): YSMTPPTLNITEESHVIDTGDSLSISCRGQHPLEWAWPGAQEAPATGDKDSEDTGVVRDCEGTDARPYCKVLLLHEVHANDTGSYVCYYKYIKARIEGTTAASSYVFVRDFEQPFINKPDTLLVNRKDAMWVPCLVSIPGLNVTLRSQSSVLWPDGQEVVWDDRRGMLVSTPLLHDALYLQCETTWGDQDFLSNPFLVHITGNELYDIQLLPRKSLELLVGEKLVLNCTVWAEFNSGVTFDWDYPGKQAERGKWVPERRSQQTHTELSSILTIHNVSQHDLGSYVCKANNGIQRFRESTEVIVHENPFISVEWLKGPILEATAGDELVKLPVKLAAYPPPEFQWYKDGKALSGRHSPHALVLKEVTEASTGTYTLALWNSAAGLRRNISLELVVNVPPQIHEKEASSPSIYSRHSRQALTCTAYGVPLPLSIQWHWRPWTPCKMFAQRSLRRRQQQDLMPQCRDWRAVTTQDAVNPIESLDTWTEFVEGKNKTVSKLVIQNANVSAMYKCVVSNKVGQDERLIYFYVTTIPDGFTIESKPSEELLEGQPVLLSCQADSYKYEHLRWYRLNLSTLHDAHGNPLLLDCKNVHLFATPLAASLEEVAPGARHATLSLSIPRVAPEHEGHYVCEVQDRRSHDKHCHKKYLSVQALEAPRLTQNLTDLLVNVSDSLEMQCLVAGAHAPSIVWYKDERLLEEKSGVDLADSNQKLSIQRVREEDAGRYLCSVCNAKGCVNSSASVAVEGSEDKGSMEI

mouse VEGFR3 = target: T2, mouse VEGFR3 (Mouse, UniProt P35917 25-775, limits assumed); assay: SPR (Biacore), 25 C
T2 construct: also called VEGFR3 Mouse
T2 sequence (looked up): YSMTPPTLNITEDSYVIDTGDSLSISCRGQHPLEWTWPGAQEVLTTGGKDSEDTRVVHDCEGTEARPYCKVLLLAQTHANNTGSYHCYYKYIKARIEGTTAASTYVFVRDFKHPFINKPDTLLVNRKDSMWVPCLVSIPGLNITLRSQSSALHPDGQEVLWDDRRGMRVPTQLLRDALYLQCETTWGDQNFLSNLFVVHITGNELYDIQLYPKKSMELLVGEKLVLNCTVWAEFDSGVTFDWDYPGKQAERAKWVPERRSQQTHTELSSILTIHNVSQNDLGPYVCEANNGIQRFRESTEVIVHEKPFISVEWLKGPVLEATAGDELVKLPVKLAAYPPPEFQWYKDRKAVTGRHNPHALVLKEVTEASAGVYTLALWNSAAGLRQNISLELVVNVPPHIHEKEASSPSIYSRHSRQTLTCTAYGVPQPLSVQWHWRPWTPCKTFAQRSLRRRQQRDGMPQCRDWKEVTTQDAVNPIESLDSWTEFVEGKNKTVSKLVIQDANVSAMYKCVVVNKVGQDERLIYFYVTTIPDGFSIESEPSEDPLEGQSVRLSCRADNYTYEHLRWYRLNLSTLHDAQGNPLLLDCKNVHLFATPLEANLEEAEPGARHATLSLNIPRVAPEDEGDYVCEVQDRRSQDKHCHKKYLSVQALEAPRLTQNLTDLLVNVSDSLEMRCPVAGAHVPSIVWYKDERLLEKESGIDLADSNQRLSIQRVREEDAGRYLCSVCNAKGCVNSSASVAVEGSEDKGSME

[1] = target: T3, human VEGFR1 (SPR analyte/ligand) (human, UniProt P17948 27-758, limits assumed); assay: SPR (Biacore), 25 C
T3 construct: also called VEGFR1 Human; Flt-1

human VEGFR2 = target: T4, human VEGFR2 (Human, UniProt P35968 20-764, limits assumed); assay: SPR (Biacore), 25 C
T4 construct: also called VEGFR2 Human

mouse VEGFR2 = target: T5, mouse VEGFR2 (Mouse, UniProt P35918 20-762, limits assumed); assay: SPR (Biacore), 25 C
T5 construct: also called VEGFR2 Mouse

mouse VEGFR1 [2] = target: T6, mouse VEGFR1 (Mouse, UniProt P35969 23-759, limits assumed); assay: SPR (Biacore), 25 C, n=4
T6 construct: also called VEGFR1 Mouse
T6 sequence (looked up): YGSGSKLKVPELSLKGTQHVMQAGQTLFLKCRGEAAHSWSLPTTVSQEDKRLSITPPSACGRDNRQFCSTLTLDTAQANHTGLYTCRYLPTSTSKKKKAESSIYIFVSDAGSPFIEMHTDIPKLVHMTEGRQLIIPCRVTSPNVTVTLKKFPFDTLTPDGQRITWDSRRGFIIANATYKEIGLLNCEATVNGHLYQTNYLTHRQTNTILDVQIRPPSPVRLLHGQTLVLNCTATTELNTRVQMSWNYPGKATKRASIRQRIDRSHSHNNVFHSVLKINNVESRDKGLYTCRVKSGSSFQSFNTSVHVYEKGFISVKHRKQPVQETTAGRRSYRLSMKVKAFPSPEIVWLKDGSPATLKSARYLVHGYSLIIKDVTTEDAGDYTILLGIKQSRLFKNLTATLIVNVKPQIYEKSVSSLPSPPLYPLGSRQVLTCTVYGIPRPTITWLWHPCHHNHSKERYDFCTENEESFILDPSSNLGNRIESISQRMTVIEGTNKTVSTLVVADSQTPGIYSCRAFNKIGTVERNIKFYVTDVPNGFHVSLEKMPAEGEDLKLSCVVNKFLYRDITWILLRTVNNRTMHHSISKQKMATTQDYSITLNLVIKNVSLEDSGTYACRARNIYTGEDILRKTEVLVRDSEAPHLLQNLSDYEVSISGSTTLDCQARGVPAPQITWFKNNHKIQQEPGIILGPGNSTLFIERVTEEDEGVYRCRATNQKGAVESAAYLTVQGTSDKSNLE

mouse VEGFR1 [3] = target: T6, mouse VEGFR1; assay: SPR (Biacore), 25 C, n=1

T5 sequence (P35918 20-762 limits assumed): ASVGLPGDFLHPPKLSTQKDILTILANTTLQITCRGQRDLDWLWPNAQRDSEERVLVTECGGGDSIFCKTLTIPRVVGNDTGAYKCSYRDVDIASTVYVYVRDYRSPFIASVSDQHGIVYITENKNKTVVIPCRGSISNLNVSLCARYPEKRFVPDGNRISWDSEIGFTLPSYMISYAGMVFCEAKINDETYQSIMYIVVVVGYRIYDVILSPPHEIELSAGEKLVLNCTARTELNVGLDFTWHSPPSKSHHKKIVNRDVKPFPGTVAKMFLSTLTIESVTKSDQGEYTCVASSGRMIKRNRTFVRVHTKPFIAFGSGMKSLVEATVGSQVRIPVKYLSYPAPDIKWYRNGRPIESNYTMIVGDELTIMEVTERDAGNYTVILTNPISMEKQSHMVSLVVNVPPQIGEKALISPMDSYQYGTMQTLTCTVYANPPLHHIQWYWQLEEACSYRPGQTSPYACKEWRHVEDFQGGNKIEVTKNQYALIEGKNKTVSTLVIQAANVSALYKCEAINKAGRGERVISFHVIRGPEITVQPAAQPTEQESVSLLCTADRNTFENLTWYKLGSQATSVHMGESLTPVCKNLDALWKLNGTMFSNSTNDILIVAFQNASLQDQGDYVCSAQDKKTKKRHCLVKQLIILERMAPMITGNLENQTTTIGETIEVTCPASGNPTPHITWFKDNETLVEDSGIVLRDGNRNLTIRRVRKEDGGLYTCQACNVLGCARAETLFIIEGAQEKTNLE
T3 sequence (P17948 27-758 limits assumed): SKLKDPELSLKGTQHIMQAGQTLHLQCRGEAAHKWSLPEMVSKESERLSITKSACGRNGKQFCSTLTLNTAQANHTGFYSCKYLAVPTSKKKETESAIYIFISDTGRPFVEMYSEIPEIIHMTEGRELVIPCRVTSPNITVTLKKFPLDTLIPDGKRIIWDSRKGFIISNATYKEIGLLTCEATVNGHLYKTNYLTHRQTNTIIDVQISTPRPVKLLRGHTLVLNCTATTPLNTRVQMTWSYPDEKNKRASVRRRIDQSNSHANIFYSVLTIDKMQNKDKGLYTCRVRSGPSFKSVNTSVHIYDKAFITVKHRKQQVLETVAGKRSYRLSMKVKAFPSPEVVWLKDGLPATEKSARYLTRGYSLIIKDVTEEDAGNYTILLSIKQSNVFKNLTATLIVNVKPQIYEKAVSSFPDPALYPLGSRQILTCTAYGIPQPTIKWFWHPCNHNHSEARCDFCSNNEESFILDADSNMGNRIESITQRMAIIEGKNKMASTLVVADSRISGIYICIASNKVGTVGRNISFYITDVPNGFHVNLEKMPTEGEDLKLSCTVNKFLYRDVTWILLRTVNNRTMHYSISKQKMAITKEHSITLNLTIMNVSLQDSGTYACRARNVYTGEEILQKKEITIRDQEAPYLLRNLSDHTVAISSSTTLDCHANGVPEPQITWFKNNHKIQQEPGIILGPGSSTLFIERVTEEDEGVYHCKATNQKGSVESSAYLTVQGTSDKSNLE
T4 sequence (P35968 20-764 limits assumed): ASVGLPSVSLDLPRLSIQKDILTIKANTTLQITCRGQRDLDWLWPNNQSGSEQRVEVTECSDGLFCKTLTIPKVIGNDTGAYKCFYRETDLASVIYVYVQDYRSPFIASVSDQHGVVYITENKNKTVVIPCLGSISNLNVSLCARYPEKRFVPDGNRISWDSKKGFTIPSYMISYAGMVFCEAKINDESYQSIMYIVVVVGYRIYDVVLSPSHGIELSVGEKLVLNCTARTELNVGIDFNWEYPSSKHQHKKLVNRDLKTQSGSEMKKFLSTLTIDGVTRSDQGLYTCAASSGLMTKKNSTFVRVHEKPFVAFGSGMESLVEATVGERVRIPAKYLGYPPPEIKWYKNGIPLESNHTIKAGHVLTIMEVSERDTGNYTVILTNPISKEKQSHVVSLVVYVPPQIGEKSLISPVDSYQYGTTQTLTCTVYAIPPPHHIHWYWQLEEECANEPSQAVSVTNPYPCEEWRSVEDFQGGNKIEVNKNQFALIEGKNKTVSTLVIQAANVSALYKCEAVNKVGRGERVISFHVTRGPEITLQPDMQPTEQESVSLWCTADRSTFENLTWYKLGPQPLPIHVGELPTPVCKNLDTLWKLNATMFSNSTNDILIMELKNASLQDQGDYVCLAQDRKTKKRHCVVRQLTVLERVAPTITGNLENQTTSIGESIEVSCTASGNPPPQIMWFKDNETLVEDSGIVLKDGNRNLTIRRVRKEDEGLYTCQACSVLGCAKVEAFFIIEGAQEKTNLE

B1: Antibody IV (antibody, mouse IgG1, kappa)
heavy: QVQLKESGPGLVRPSETLSLTCTVSGFSLSDYSLSWVRRPSGKGPEWLGRLWFDGDTTYNSAFKSRLTISRDTSKDQVFLKMNSLQTDDTGTYYCTRDDRDFDYWGQGVMVTVSSAKTTPPSVYPLAPGSAAQTNSMVTLGCLVKGYFPEPVTVTWNSGSLSSGVHTFPAVLQSDLYTLSSSVTVPSSTWPSETVTCNVAHPASSTKVDKKIVPRDCGCKPCICTVPEVSSVFIFPPKPKDVLTITLTPKVTCVVVDISKDDPEVQFSWFVDDVEVHTAQTQPREEQFNSTFRSVSELPIMHQDWLNGKEFKCRVNSAAFPAPIEKTISKTKGRPKAPQVYTIPPPKEQMAKDKVSLTCMITDFFPEDITVEWQWNGQPAENYKNTQPIMDTDGSYFVYSKLNVQKSNWEAGNTFTCSVLHEGLHNHHTEKSLSHSPG
light: DIVMTQTPVSMSVSLGGQVSISCRSSQSLVNNNGNTYLSWYIQKPSQSPQLLIYKVSNRVSGISDRFSGSGSGTDFTLKINKIEPDDLGVYYCGQNTQYPLTFGSGTKLEIKRADAAPTVSIFPPSSEQLTSGGASVVCFLNNFYPKDINVKWKIDGSERQNGVLNSWTDQDSKDSTYSMSSTLTLTKDEYERHNSYTCEATHKTSTSPIVKSFNRNEC
notes: also called Ab IV; Antibody 4
- binding result (human VEGFR3): no binding (tested: ~200 nM)
- binding result (mouse VEGFR3): no binding (tested: ~200 nM)
- binding result [1]: no binding (tested: ~200 nM)
- binding result (human VEGFR2): no binding (tested: ~200 nM)
- binding result (mouse VEGFR2): no binding (tested: ~200 nM)
- Kd (mouse VEGFR1 [2]): ≤ 0.018 nM
- koff (mouse VEGFR1 [2]): < 1e-05 s⁻¹

B2: Antibody III (antibody)
heavy: QVQLKESGPGLVRPSETLSLTCTVSGFSLSDYSLSWVRRPSGKGPEWLGRLWFDGDTTYNSAFKSRLTISRDTSKDQVFLKMNSLQTDDTGTYYCTRDDRDFDYWGQGVMVTVSSAETTAPSVYPLAPGTALKSNSMVTLGCLVKGYFPEPVTVTWNSGALSSGVHTFPAVLQSGLYTLTSSVTVPSSTWPSQTVTCNVAHPASSTKVDKKIVPRNCGGDCKPCICTGSEVSSVFIFPPKPKDVLTITLTPKVTCVVVDISQDDPEVHFSWFVDDVEVHTAQTRPPEEQFNSTFRSVSELPILHQDWLNGRTFRCKVTSAAFPSPIEKTISKPEGRTQVPHVYTMSPTKEEMTQNEVSITCMVKGFYPPDIYVEWQMNGQPQENYKNTPPTMDTDGSYFLYSKLNVKKEKWQQGNTFTCSVLHEGLHNHHTEKSLSHSPGK
light: DIVMTQTPVSMSVSLGGQVSISCRSSQSLVNNNGNTYLSWYIQKPSQSPQLLIYKVSNRVSGISDRFSGSGSGTDFTLKINKIEPDDLGVYYCGQNTQYPLTFGSGTKLEIKRADAAPTVSIFPPSTEQLATGGASVVCLMNNFYPRDISVKWKIDGTERRDGVLDSVTDQDSKDSTYSMSSTLSLTKADYESHNLYTCEVVHKTSSSPVVKSFNRNEC
notes: also called Ab III; Antibody 3
- Kd (mouse VEGFR1 [3]): 0.032 nM
- koff (mouse VEGFR1 [3]): 1.87e-05 s⁻¹
